The results in this text go back to patent US20040110684A1.

The target in assay [1] is wild-type eNOS (construct expressed in COS cells) (UniProt P29474). The assay is described as follows: cell-based or functional assay.
Assay [2] concerns the target endothelial nitric oxide synthase (eNOS), endogenous, human umbilical vein endothelial cells (HUVECs) (human) (UniProt P29474). The assay is described as follows: eNOS IP, phospho-Ser473-Akt immunoblot, HUVEC lysates. On the technique in general: Immunoblotting shows a protein as a band on a membrane.
The target in assay [3] is S1177A eNOS mutant (construct expressed in COS cells) (UniProt P29474). In words: cell-based or functional assay.
Sequence of S1177A eNOS mutant (construct expressed in COS cells) (P29474 2-1203 S1177A limits assumed): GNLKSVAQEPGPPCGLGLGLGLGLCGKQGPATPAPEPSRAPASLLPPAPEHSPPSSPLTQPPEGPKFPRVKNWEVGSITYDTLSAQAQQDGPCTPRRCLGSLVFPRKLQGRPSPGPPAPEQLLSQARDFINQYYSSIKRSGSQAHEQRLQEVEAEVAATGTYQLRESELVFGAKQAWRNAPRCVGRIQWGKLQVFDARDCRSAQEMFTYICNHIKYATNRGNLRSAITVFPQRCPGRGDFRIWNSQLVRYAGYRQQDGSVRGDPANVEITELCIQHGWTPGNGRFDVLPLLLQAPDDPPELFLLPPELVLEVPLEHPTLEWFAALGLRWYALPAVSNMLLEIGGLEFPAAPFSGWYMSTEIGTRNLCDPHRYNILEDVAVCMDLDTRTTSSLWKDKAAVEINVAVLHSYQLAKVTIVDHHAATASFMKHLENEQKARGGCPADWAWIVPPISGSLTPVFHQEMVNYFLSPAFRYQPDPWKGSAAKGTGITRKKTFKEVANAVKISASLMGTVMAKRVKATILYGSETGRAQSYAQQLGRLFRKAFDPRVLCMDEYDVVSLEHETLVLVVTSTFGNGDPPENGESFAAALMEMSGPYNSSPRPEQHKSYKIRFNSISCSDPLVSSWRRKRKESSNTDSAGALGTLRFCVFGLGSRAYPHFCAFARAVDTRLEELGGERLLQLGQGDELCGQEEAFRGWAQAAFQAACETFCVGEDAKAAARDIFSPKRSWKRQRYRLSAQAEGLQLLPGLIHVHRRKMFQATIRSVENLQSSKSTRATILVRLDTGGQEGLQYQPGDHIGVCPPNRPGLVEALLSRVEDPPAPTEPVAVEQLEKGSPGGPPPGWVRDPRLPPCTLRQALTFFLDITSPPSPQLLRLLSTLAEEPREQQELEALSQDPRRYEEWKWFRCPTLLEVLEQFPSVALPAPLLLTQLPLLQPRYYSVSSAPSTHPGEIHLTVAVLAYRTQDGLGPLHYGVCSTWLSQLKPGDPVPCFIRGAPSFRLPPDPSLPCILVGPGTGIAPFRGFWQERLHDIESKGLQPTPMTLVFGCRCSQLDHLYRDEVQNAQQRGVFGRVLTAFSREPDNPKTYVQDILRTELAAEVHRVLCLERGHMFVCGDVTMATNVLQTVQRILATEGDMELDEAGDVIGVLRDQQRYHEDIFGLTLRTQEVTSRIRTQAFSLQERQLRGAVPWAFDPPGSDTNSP

Sequence of wild-type eNOS (construct expressed in COS cells) (P29474 2-1203 limits assumed): as the sequence (P29474 2-1203 S1177A limits assumed) above, with A1176S counted along it
Sequence of endothelial nitric oxide synthase (eNOS), endogenous, human umbilical vein endothelial cells (HUVECs) (human) (P29474 2-1203 limits assumed): as the sequence (P29474 2-1203 S1177A limits assumed) above, with A1176S counted along it

With “Myc-tagged active Akt (T308D/S473D) (from UniProt P31749 1-480) (enzyme)”, in assay [1], the increase in nitrite production, co-transfected COS cells turned out to be 64%; the increase over basal level of nitrite production, COS cells co-transfected with WT-eNOS, active Akt and also recombinant hsp90 worked out at 152%.

Take “phospho-Ser473-Akt, endogenous, human umbilical vein endothelial cells (HUVECs) (from UniProt P31749 1-480) (enzyme)”: the fold increase of phospho-Akt enrichment in the eNOS IP, statin plus recombinant hsp90 vs statin alone in assay [2] was more than 3 fold.

As for “recombinant hsp90 (expressed from hsp90 cDNA, gift of Dr W. C. Sessa)”, the increase in nitrite production, co-transfected COS cells is 40% in assay [3] and 49% in assay [1].
